Measurements: patent publication US20260242478A1 (published 2026)

B1: Phage-744 (peptide)
peptide: YCDGHSPEYMTKCL
notes: tested as crude clonal phage supernatant
B2: Phage-746 (peptide)
peptide: YCAGHMPEYIDKCL
notes: as for B1
B3: Phage-745 (peptide)
peptide: YCEGHSMEYMAKCL
notes: as for B1
B4: Phage-739 (peptide)
peptide: YCDGHSPDYIWKCL
notes: as for B1
B5: Phage-736 (peptide)
peptide: YCDGHASEYMWKCL
notes: as for B1
B6: Phage-741 (peptide)
peptide: YCMGHQPEYMQKCL
notes: as for B1
B7: Phage-740 (peptide)
peptide: YCMGHAPEYMEKCL
notes: as for B1
B8: Phage-737 (peptide)
peptide: YCSGHAPEYMAKCL
notes: as for B1
B9: Phage-743 (peptide)
peptide: YCDGHSAEYLAKCL
notes: as for B1
B10: Phage-738 (peptide)
peptide: YCEGHRAEYMEKCL
notes: as for B1
B11: Phage-748 (peptide)
peptide: YCDGHLNEYMEKCL
notes: as for B1
B12: Phage-742 (peptide)
peptide: YCDGHMPEYMEKCL
notes: as for B1
B13: Phage-747 (peptide)
peptide: YCAGHSPEFMEKCL
notes: as for B1

Target: T1, Anti-CD28 Fab (SEQ ID NOs: 696, 697)
T1 construct: The Fab was biotinylated and captured on neutravidin coated plates in the phage ELISA
Assay: phage binding ELISA; biotinylated anti-CD28 Fab on neutravidin plate, bound phage detected with anti-M13 HRP;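 further: crude supernatants of clonal phage screened, wells pretreated with blocking buffer with or without CD28 antigen before brief phage incubation, washed, then bound phage detected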
T1 sequence (VH, as listed by the source, chain 1 of 2): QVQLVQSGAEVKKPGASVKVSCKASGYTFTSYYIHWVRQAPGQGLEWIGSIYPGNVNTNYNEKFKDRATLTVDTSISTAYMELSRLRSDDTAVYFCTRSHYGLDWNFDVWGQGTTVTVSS
T1 sequence (VL, as listed by the source, chain 2 of 2): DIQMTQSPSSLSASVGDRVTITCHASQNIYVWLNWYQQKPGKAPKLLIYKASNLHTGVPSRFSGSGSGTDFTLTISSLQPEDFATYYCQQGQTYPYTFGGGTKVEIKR
Description: (§1) After panning, phage infected bacteria were plated out and colonies picked into 96 well blocks. Clonal phage was then amplified and separated from bacterial cells via centrifugation.
(§2) Clonal phage were harvested as crude supematants and screened via standard ELISAs. […] Prior to the addition of clonal phage, wells were incubated with blocking buffer and CD28 antigen or blocking buffer alone. Without washing or aspirating, clonal phage supematants were then added to the wells and incubated for a short time. Wells were then washed followed by detection of bound phage using a horse radish conjugated anti-M13 antibody. Clonal phage of interest were then sent for sequence analysis.

Binder	Anti-CD28 Fab (SEQ ID NOs: 696, 697) signal
YCDGHSKEYMHKCL (Tested as clonal phage supernatant) [Phage-757]	1.9
YCEGHSEEYMSKCL (Tested as clonal phage supernatant) [Phage-754]	1.91
YCEGHSSEYMEKCL (Tested as clonal phage supernatant) [Phage-752]	1.91
YCEGHLAVYMQKCL (Tested as clonal phage supernatant) [Phage-751]	1.91
YCDGHLDIYLAKCL (Tested as clonal phage supernatant) [Phage-753]	1.91
YCAGHLEEYMDKCL (Tested as clonal phage supernatant) [Phage-761]	1.9
YCDGHSQEYMWKCL (Tested as clonal phage supernatant) [Phage-755]	1.9
YCEGHLAQYMWKCL (Tested as clonal phage supernatant) [Phage-750]	1.91
YCDGHAEEYMSKCL (Tested as clonal phage supernatant) [Phage-759]	1.9
YCDGHAPEYMKKCL (Tested as clonal phage supernatant) [Phage-756]	1.9
YCDGHEPQYLEKCL (Tested as clonal phage supernatant) [Phage-758]	1.9
YCDGHLKEYQEKCL (Tested as clonal phage supernatant) [Phage-749]	1.91
YCDGHVEEYLYKCL (Tested as clonal phage supernatant) [Phage-760]	1.9

Target: T1, Anti-CD28 Fab (SEQ ID NOs: 696, 697)
Assay: phage binding ELISA on anti-CD28 Fab plate; competitor: CD28 antigen pre-incubated in the wells
Description: as §1, §2

Binder	Anti-CD28 Fab signal in the presence of CD28
YCDGHSKEYMHKCL (Tested as clonal phage supernatant) [Phage-757]	0.07
YCEGHSEEYMSKCL (Tested as clonal phage supernatant) [Phage-754]	0.07
YCEGHSSEYMEKCL (Tested as clonal phage supernatant) [Phage-752]	0.06
YCEGHLAVYMQKCL (Tested as clonal phage supernatant) [Phage-751]	0.1
YCDGHLDIYLAKCL (Tested as clonal phage supernatant) [Phage-753]	0.08
YCAGHLEEYMDKCL (Tested as clonal phage supernatant) [Phage-761]	0.06
YCDGHSQEYMWKCL (Tested as clonal phage supernatant) [Phage-755]	0.09
YCEGHLAQYMWKCL (Tested as clonal phage supernatant) [Phage-750]	0.12
YCDGHAEEYMSKCL (Tested as clonal phage supernatant) [Phage-759]	0.09
YCDGHAPEYMKKCL (Tested as clonal phage supernatant) [Phage-756]	0.06
YCDGHEPQYLEKCL (Tested as clonal phage supernatant) [Phage-758]	0.08
YCDGHLKEYQEKCL (Tested as clonal phage supernatant) [Phage-749]	0.09
YCDGHVEEYLYKCL (Tested as clonal phage supernatant) [Phage-760]	0.06

Target: Anti-CD28 Fab (SEQ ID NOs: 696, 697)
Assay: phage binding ELISA; biotinylated anti-CD28 Fab on neutravidin plate, clonal phage supernatant, anti-M13 HRP detection
Target sequence in this assay (VH, as listed by the source, chain 1 of 2): as the sequence (VH, as listed by the source, chain 1 of 2) above
Target sequence in this assay (VL, as listed by the source, chain 2 of 2): as the sequence (VL, as listed by the source, chain 2 of 2) above
Description: as §1, §2

Binder	Anti-CD28 Fab signal (phage binding ELISA)
YCDGHSALYMWKCL [Phage-726]	1.96
YCAGHLEIYMNKCL [Phage-733]	1.94
YCDGHSSEYMIKCL [Phage-727]	1.95
YCDGHSPEHIRKCL [Phage-732]	1.94
YCDGHSAEYMQKCL [Phage-729]	1.95
YCEGHLPIYLSKCL [Phage-735]	1.94
YCEGHLSQYMEKCL [Phage-731]	1.95
YCDGHLVEYMSKCL [Phage-730]	1.95
YCEGHLSEYMAKCL [Phage-734]	1.94
YCDGHLIEYMYKCL [Phage-728]	1.95
YCAGHSVEYMAKCL [Phage-725]	1.96
YCDGHLPEYLGKCL [Phage-724]	1.96

Target: T2, Anti-CD28 Fab (SEQ ID NOs: 696, 697)
T2 construct: In the phage ELISA the Fab was biotinylated and captured on neutravidin coated plates
Assay: phage ELISA on anti-CD28 Fab pre-incubated with CD28 antigen as competitor, anti-M13 HRP detection
T2 sequence (VH, as listed by the source, chain 1 of 2): as the sequence (VH, as listed by the source, chain 1 of 2) above
T2 sequence (VL, as listed by the source, chain 2 of 2): as the sequence (VL, as listed by the source, chain 2 of 2) above

Binder	Phage binding ELISA, Anti-CD28 Fab signal in the presence of CD28
YCAGHAPQYMEKCL (Tested as clonal phage supernatant) [Phage-762]	0.08
YCDGHRPEYMEKCL (Tested as clonal phage supernatant) [Phage-765]	0.06
YCDGHSPEYMPKCL (Tested as clonal phage supernatant) [Phage-769]	0.08
YCDGHLPEYMGKCL (Tested as clonal phage supernatant) [Phage-766]	0.11
YCEGHLQEYMEKCL (Tested as clonal phage supernatant) [Phage-767]	0.1
YCAGHLPQYIAKCL (Tested as clonal phage supernatant) [Phage-763]	0.09
YCDGHLKEYMAKCL (Tested as clonal phage supernatant) [Phage-764]	0.07
YCEGHIPEYMAKCL (Tested as clonal phage supernatant) [Phage-768]	0.06

Target: T2, Anti-CD28 Fab (SEQ ID NOs: 696, 697)
Assay: phage ELISA; biotinylated anti-CD28 Fab on neutravidin plate, clonal phage supernatant, anti-M13 HRP detection;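 further: crude supernatants of single phage clones picked after panning were screened for binding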
Description: as §1, §2

Binder	Phage binding ELISA, Anti-CD28 Fab signal
YCAGHAPQYMEKCL (Tested as clonal phage supernatant) [Phage-762]	1.9
YCDGHRPEYMEKCL (Tested as clonal phage supernatant) [Phage-765]	1.9
YCDGHSPEYMPKCL (Tested as clonal phage supernatant) [Phage-769]	1.89
YCDGHLPEYMGKCL (Tested as clonal phage supernatant) [Phage-766]	1.89
YCEGHLQEYMEKCL (Tested as clonal phage supernatant) [Phage-767]	1.89
YCAGHLPQYIAKCL (Tested as clonal phage supernatant) [Phage-763]	1.9
YCDGHLKEYMAKCL (Tested as clonal phage supernatant) [Phage-764]	1.9
YCEGHIPEYMAKCL (Tested as clonal phage supernatant) [Phage-768]	1.89

Target: T3, Anti-CD28 Fab (SEQ ID NOs: 696, 697)
T3 construct: In the phage ELISA the Fab was biotinylated and captured on neutravidin coated plates
Assay: as above
T3 sequence (VH, as listed by the source, chain 1 of 2): as the sequence (VH, as listed by the source, chain 1 of 2) above
T3 sequence (VL, as listed by the source, chain 2 of 2): as the sequence (VL, as listed by the source, chain 2 of 2) above
Description: as §1, §2

Binder	Anti-CD28 Fab signal (phage binding ELISA)
B1	1.93
B2	1.92
B3	1.92
B4	1.93
B5	1.94
B6	1.93
B7	1.93
B8	1.94
B9	1.93
B10	1.93
B11	1.91
B12	1.93
B13	1.91

Target: Anti-CD28 Fab (SEQ ID NOs: 696, 697)
Assay: phage binding ELISA on anti-CD28 Fab; wells first incubated with CD28 antigen as competitor
Target sequence in this assay (VH, as listed by the source, chain 1 of 2): as the sequence (VH, as listed by the source, chain 1 of 2) above
Target sequence in this assay (VL, as listed by the source, chain 2 of 2): as the sequence (VL, as listed by the source, chain 2 of 2) above
Description: as §1, §2

Binder	Anti-CD28 Fab signal in the presence of CD28
YCDGHSALYMWKCL [Phage-726]	0.08
YCAGHLEIYMNKCL [Phage-733]	0.07
YCDGHSSEYMIKCL [Phage-727]	0.06
YCDGHSPEHIRKCL [Phage-732]	0.11
YCDGHSAEYMQKCL [Phage-729]	0.07
YCEGHLPIYLSKCL [Phage-735]	0.08
YCEGHLSQYMEKCL [Phage-731]	0.08
YCDGHLVEYMSKCL [Phage-730]	0.08
YCEGHLSEYMAKCL [Phage-734]	0.2
YCDGHLIEYMYKCL [Phage-728]	0.09
YCAGHSVEYMAKCL [Phage-725]	0.08
YCDGHLPEYLGKCL [Phage-724]	0.08

Target: T3, Anti-CD28 Fab (SEQ ID NOs: 696, 697)
Assay: phage ELISA; Fab-coated wells pre-incubated with CD28 antigen as competitor, anti-M13 HRP detection;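 further: crude clonal phage supernatants screened by ELISA, comparing wells pre-treated with CD28 antigen in blocker against wells given blocker only, bound phage read via HRP-linked anti-M13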
Description: as §1, §2

Binder	Anti-CD28 Fab signal in the presence of CD28 (phage binding ELISA)
B1	0.07
B2	0.06
B3	0.07
B4	0.1
B5	0.06
B6	0.08
B7	0.07
B8	0.06
B9	0.08
B10	0.06
B11	0.06
B12	0.09
B13	0.06
